Patent CN114369161A (HEFEN TIANKPORT IMMUNOLOGICAL DRUG CO LTD, dated 2022)

Key:
[1] = target: T1, MICA胞外区α3结构域Fc融合蛋白(MICAα3-Fc); test: ELISA (legend of Fig. 2)
T1 construct: also called MICAα3-Fc融合蛋白; MICA α3结构域

[2] = target: T2, MICB (CHO-K1-MICB细胞表达) (Homo sapiens (Human), UniProt Q29980 23-382); test: flow cytometry (legend of Fig. 4)
T2 chain: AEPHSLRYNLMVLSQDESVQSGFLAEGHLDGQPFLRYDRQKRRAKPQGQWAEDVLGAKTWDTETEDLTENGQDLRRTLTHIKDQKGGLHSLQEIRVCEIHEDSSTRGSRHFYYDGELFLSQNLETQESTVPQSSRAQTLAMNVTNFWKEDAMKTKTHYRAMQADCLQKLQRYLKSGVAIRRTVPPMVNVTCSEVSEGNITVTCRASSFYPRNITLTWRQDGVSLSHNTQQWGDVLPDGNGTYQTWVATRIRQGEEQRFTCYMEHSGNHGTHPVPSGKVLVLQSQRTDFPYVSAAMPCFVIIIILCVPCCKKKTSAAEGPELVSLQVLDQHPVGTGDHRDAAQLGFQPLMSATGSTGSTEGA

[3] = target: T3, 重组MICA胞外区Fc融合蛋白(MICA-Fc) (human); test: ELISA, MICA-Fc coated at 1 μg/mL, HRP anti-mouse secondary
T3 construct: also called MICA-Fc融合蛋白; 人MICA

[4] = target: T4, MICA (CHO-K1-MICA细胞表达) (Homo sapiens (Human), UniProt Q29983 24-383); test: flow cytometry (legend of Fig. 3)
T4 construct: also called MICA蛋白
T4 sequence: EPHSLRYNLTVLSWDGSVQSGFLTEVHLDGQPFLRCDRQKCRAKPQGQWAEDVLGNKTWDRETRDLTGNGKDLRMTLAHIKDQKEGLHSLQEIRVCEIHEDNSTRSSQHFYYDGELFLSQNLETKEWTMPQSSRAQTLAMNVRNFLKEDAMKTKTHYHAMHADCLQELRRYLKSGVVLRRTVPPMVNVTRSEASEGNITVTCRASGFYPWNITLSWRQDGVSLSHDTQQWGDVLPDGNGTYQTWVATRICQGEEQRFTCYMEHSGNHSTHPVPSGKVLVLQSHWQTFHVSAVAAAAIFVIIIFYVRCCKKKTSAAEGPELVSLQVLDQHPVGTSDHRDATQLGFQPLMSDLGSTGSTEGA

Measured: binding result

T1 sequence (chain, as listed by the source limits assumed): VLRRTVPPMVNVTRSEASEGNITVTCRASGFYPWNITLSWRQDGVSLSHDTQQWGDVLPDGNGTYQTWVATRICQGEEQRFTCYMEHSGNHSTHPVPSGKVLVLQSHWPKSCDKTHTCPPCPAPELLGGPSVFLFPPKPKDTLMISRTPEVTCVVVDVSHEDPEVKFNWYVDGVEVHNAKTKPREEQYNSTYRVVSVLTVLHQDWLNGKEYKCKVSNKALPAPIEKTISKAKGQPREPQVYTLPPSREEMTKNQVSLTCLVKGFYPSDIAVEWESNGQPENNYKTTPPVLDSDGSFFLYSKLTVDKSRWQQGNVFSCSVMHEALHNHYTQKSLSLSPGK

B1: MICA抗体(编号为11G3) (antibody, V domains shown)
VH: QIQLVQSGPELKKPGESVKISCKASGYTFTDYGINWVKQAPGKGLKWVGWINTYTGEPINADDFKGRFALSLETSANTAYLQINNLKNEDMATYFCTRLSTVAVGAWFEYWGQGTLVTVSA
VL: DVLMTQTPLSLPVSLGDQASISCRSSQNIVHSNGNTYLEWYLQKPGQSPKLLIYKVSNRFSGVPDRFSGSGSGTDFTLKISRVEAEDLGVYYCFQGSHVPTFGGGTKLEIK
notes: also called 鼠单抗; 本发明的抗体
binds: all assays above
